Data reported in patent publication US9382311.

Biological target: T1, YU2 gp120 (HIV-1, UniProt P35961 32-498)
T1 construct: domain: gp120
Assay: ELISA (FIG. 3)

B1: VRC-PG-04 (antibody, V domains shown)
VH: QVQLVQSGSGVKKPGASVRVSCWTSEDIFERTELIHWVRQAPGQGLEWIGWVKTVTGAVNFGSPDFRQRVSLTRDRDLFTAHMDIRGLTQGDTATYFCARQKFYTGGQGWYFDLWGRGTLIVVSS
VL: EIVLTQSPGTLSLSPGETASLSCTAASYGHMTWYQKKPGQPPKLLIFATSKRASGIPDRFSGSQFGKQYTLTITRMEPEDFARYYCQQLEFFGQGTRLEIR
notes: also called PGV04
Does B1 bind?
Result: binds
